Series [1] has as its system IL-8 secretion by U937 cells. Briefly: IL-8 secretion by cultured U937 cells, ELISA. Particulars: for production of interlukin-8 (IL-8) in U937 cells: general statement; for up-regulation of IL-8 secretion compared with Product R: peptide solutions 2 mg/ml, equimolar mixture 4 mg/ml, final concentration 10% in culture media, FIG. 20. Type of series: cell-based, human. The procedure: Ammonium sulfate precipitation of Product U peptides: Product U samples are lyophilized and re-dissolved in 20% of original sample volume in water (5X concentrated). Ammonium sulfate crystals are added to the solution to reach 60% ammonium sulfate saturation (390 mg/ml solution). Gentle mixing solubilizes crystals. Protein precipitates appear after 30 mm to 1 hr incubation on ice and is centrifuged at 16,000×g for 30 min. at […]. The pellet is dissolved in 5% of original sample volume in water. The solution is desalted by gel filtration chromatography through a column of BioGel P-2. The column is eluted with 0.1X phosphate buffered saline (PBS). Only protein containing fractions are pooled and lyophilized.
Separation and isolation of two major neptide of Product R by gel ruhranon chromatography: A BioGel P-10 column (1.6 cm×52 cm) was equilibrated with 0.1X concentration of PBS. Two ml of 2X concentrated Product R was applied to the column, which was eluted with the same buffer at a flow rate of 25 mI/hr. Four mm. fractions were collected. All protein-containing fractions are analyzed by Sodium dodecyl sulfate polyacrilamide gel electrophoresis (SDS-PAGE). Fraction, containing primarily peptide A and peptide B are pooled separately and lyophilized. Peptide A pool contains very little contamination of the other peptide, however, the peptide B pool is highly enriched but still contains peptide A as a major contaminant. A reasonable estimate of peptide purity in the pools is >90% for peptide A and >75% for peptide B.
U937 cell culture: The U937 human hystiocytic lymphoma cell line was purchased from the American Type Culture Collection. Cells were thawed and maintained in logarithmic growth (5-9×10^5 cells/mL) in RPMI 1640 culture medium, supplemented with 10% fetal bovine serum, heat inactivated at 56° C. for 30 min, 2mM L-glutamine and 1x Penicillin-Streptomycin.
Product R or isolated peptide treatment: Cells (1.0×10^5/ml) are cultured in growth medium containing Product R, isolated purified peptide solution, mixed peptides solution or Dulbecco's PBS for 2 days. Following centrifugation, the culture supernatants are analyzed using chemokine ELISA kits. Final concentration of Product R in the culture medium was 10% (v/v). The ammonium sulfate precipitated peptides were reconstituted in culture medium to yield a 10 mg/ml solution. Two 2-fold dilutions were prepared, also using culture medium as diluent. These solutions were used at a final concentration of 10% in the U937 cell culture. The individual lyophilized peptides were reconstituted in endotoxin-free water to yield 2 mg/ml solutions (which is the approximate concentration of each peptide in Product R). An equimolar mixture of both peptides was prepared at a final concentration of 4 mg/ml. Both were used at a final concentration of 10% in the culture media for the assays.
Measurement of secreted IL-8 and MCP-1: The concentrations of IL-8 and MCP-1 in the culture supernatants are assayed by ELISA, using human IL-S ELISA kits (Endogen. Inc.) and Quantikine human MCP-1 ELISA kits (R&D Systems, Inc.), respectively, according to manufacturer's instructions (with slight modifications for the MCP-1 ELISA). […] Absorbances are measured on a PowerWave 200 Microplate Scanning Spectrophotometer. Dilutions of the standard protein supplied by each manufacturer are utilized to generate a four-parameter logistic fit standard curve, and the concentration of chemokine in each supernatant is determined by extrapolation.
For orientation: In an ELISA, binding on a coated surface is turned into a signal by an enzyme label.

The target in series [2] is T1, recombinant N-glycosidase F (Elizabethkingia miricola, UniProt P21163).
T1 construct: purchased Boehringer Mannheim, USA
T1 sequence (P21163 41-354): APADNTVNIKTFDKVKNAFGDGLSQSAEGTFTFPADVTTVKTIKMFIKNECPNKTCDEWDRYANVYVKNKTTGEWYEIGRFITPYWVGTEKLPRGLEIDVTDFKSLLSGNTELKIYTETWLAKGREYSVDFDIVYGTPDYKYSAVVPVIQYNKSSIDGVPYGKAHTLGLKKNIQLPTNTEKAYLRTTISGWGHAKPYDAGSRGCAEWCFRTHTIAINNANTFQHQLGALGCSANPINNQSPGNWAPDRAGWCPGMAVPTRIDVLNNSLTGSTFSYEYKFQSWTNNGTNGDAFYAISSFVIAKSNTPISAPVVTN
Briefly: Treatment of Product R with N-glycosidase F, SDS-PAGE on a 16% gel. In kind it is physicochemical. The arrangement: key: “−” represents no substantial alteration of the stainable bands; “+” represents substantial alteration of the stainable bands. Particulars: 37° C., 4 hours. The protocol:
(§1) The biochemical properties of the peptides: Some biochemical properties of the silverstainable peptide components of Product R are analyzed using various catabolic enzymes, as described below:
The treatment with N-glycosidase F (Boehringer Mannheim, USA): N-glycosidase F cleaves all types of asparagine bound N-glycans provided that the amino group and the carboxyl group are present in a peptide linkage and the oligosaccharide has the minimum length of the chitobiose core unit. A Product R sample is incubated in a reaction buffer containing 0.4X Dulbecco's PBS (where 1X PBS contains 1.47 mM KH2 PO4, 2.67 mM KCl, 138 mM NaCl and 8.1 mM Na2 PO4 7H2O), 0.1% SDS, 0.5% NP40 and 50 units/mil of recombinant N-glycosidase F at 37° C. for 4 hours and subject to SDS-PAGE on a 16% gel. […] The resistance to N-glycosidase F indicates the lack of asparagine bound N-glycan, which is commonly observed in glycoproteins.
(§2) A summary of the above described treatments by catabolic enzymes is provided in the following TABLE III, and the results of the treatment are shown in FIG. 5, wherein “−” represents no substantial alteration of the stainable bands and “+” represents substantial alteration of the stainable bands.

For series [3], the system named is Calf thymus alkaline phosphatase (CIAP). The series is described as follows: Treatment of Product R with alkaline phosphatase, SDS-PAGE on a 16% gel. Type of series: physicochemical. On the set-up: key to Sensitivity of the Peptide Components of Product R (SDS-PAGE): Alkaline Phosphatase (200 units/ml): “−” represents no substantial alteration of the stainable bands; “+” represents substantial alteration of the stainable bands. Particulars: 200 units/ml CIAP, 37° C., about one hour. The protocol: as §1
The treatment with alkaline phosphatase (Life Technologies, USA): Calf thymus alkaline phosphatase (CIAP) is a phosphomonoesterase that hydrolyses 5′-phosphate groups from DNA, RNA and nucleotides. A Product R sample is incubated in a reaction buffer provided by the manufacturer of the enzyme and 200 units/ml CIAP at 37° C. for about one hour and subjected to SDS-PAGE on a 16% gel.
as §2

A further series addresses T2, proteinase K (Parengyodontium album, UniProt P06873).
T2 construct: purchased ICN Biochemicals
The series is described as follows: Treatment of Product R with proteinase K, SDS-PAGE on a 16% gel, silver stain. On the set-up: key to Sensitivity of the Peptide Components of Product R (SDS-PAGE): Proteinase K (100 μg/ml) / Sensitivity of the Peptide Components of Product R (SDS-PAGE): Proteinase K (800 μg/ml): “−” represents no substantial alteration of the stainable bands; “+” represents substantial alteration of the stainable bands. The following applies: for Sensitivity of the Peptide Components of Product R (SDS-PAGE): Proteinase K (800 μg/ml) / change of silver stained bands after proteinase K treatment: 800 μg/ml proteinase K, one hour. In kind it is physicochemical. The protocol:
as §1
The treatment with proteinase K (ICN Biochemicals): Proteinase K is a non-specific broad spectrum protease that cleaves peptide bonds at the C-terminal of aliphatic, aromatic and hydrophobic amino acids. It may cleave all serum peptides completely at 50 μg/ml within one hour. […]
as §2

“Also recorded” adds a separate entry of the source. No end group written: not given here.

T2 sequence (P06873 106-384): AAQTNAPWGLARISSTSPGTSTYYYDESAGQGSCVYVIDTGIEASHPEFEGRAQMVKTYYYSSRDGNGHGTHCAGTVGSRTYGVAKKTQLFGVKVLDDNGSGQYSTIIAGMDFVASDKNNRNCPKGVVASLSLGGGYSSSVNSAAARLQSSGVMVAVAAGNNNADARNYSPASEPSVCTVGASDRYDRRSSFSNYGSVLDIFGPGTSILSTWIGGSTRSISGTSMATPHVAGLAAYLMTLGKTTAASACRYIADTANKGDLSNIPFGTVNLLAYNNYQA

Turning to “KVLPVPQKAVPYPQRDMPIQAFLLYQEPVLG [Peptide-A, 31-amino-acid long peptide derived from bovine beta-casein, constituent of Product R]”, in series [1], the “production of interlukin-8 (IL-8) in U937 cells” value is recorded as “capable of inducing the production” and the “up-regulation of IL-8 secretion compared with Product R” value is listed as “only elicited a less response”. The “Sensitivity of the Peptide Components of Product R (SDS-PAGE): N-glycosidase F (50 units/ml)” value in series [2] is “−”. The “Sensitivity of the Peptide Components of Product R (SDS-PAGE): Alkaline Phosphatase (200 units/ml)” value in series [3] is given as “−”. For the same sequence, in the series with proteinase K, the “Sensitivity of the Peptide Components of Product R (SDS-PAGE): Proteinase K (800 μg/ml)” value is listed as “+” and the “change of silver stained bands after proteinase K treatment” value was “disappears”.

Consider “GEIPDAGGRIVDYYVGFSDSV (not fully specified (residue 18)) [Peptide-B, 21-amino acid peptide linked at serine 18 through a diphosphodiester group to the 3′-end of an adenylyl (3′-5′) adenosine moiety]”, for which the “production of interlukin-8 (IL-8) in U937 cells” value in series [1] is reported as “capable of inducing the production; also recorded: contributes more to the activity than peptide-A”. Further, the “up-regulation of IL-8 secretion compared with Product R” value in series [1] (listed as Peptide B) is listed as “maintained most of the ability of Product R to up-regulate IL-8 secretion”. In addition, in series [1] (listed as peptide-B), the “up-regulation of IL-8 secretion compared with Product R” value is listed as “induces higher levels of secretion of IL-8 or MCP-1 than peptide-A”. The “Sensitivity of the Peptide Components of Product R (SDS-PAGE): N-glycosidase F (50 units/ml)” value in series [2] is “−”. Besides, in series [3], the “Sensitivity of the Peptide Components of Product R (SDS-PAGE): Alkaline Phosphatase (200 units/ml)” value was “−” and the “change of band intensity / hydrolysis by alkaline phosphatase” value is “resistance”. In addition, in the series with proteinase K (100 μg/ml proteinase K, 40° C., 30 minutes), the “Sensitivity of the Peptide Components of Product R (SDS-PAGE): Proteinase K (100 μg/ml)” value is reported as “−”. In addition, in the series with proteinase K, the “Sensitivity of the Peptide Components of Product R (SDS-PAGE): Proteinase K (800 μg/ml)” value is listed as “−” and the “change of silver stained bands after proteinase K treatment” value was “no obvious change”.
